Consider three molecules from patent US20260234247A1.

One may read the EC50 as the concentration giving half of the maximal effect. Read a high EC50 as a less potent agent.

The target in experiment [1] is Rhesus LILRB1 (NP_001035762.2) on CHOK1 cells (rhesus macaque) (UniProt F7H3G7). Put plainly: flow cytometry on CHOK1-rhesus LILRB1 (NP_001035762.2) cells.
Experiment [2] concerns the target Rhesus LILRB1 (NP_001035762.2) protein (rhesus macaque) (UniProt F7H3G7). Put plainly: ELISA on rhesus LILRB1 (NP_001035762.2) protein.
The target in experiment [3] is Cynomolgus LILRB2 on CHOK1 cells (cynomolgus). Put plainly: flow cytometry on CHOK1-cyno LILRB2 cells. A general note: Flow cytometry measures light scatter and fluorescence of single cells or particles in a stream.

B1: LK-RB1-5 (antibody, human IgG4 S228P, kappa, V domains shown)
VH: QVQLQQPGAELVKPGASVKLSCKASGYTFTDFWIHWVKQRPGQGLEWIGMIHPNSGSTNFNEKFRAKATLTVDKSSSTAYMRLSSLTSEDSAVYYCARSGDGYSNPMDYWGQGTSVTVSS
VL: QIVLSQSPAILSASPGEKVTLTCRASSSVSYMHWYQQKPGSSPKPWIYATSNLASGVPVRFSGSGSGTSYSLTISRMQTEDAATYYCQQWRRSPYTFGGGTKLEIKR
Take B1: the EC50 in experiment [1] came out at 1.08 nM; in experiment [2] it was 0.05 nM.

B2: LK-RB2-42 (antibody, human IgG4 S228P, kappa, V domains shown)
VH: EFQLQQSGPELVKPGASVKISCKASGYSFTDYNMNWVKQSNGKSLDWIGIINPKYGTTAYNQKLRDKATLTVDQSSSTAYMQLNSLTSEDSAVYYCASLNWDEGFAYWGQGTLVTVSP
VL: DVLMTQTPLSLPVSLGDQASISCRSSQSIVHSNGNTYLEWYLQKPGQPPKLLIYKVSNRFSGVPERFSGSGSGTDFTLKINRVEAEDLGVYYCFQGSLVPPTFGGGTKLEIKR
As for B2, in experiment [3], the EC50 turned out to be 2.86 nM.

B3: LK-RB1-11 (antibody, human IgG4 S228P, kappa, V domains shown)
VH: QVTLKESGPGILQPSQTLSLTCSFSGFSLKTSGMSVGWIRQPSGKGLEWLAHIWWNDDKYYNPVLKGRLTISKDTSNNLVFLKIASVVSTDTATYYCVRYGNSHGYWYFDVWGTGTTVTVSS
VL: NIVLTQSPASLAVSLGQRATISCRASESVDSYGNNFIHWYQQKPGQPPKVLIYYASNLEAGVPARFSGSGSRTDFTLTIDPVEAEDAATYYCQQNNEDPYTFGGGTKLEIER
B3 displayed an EC50 in experiment [2] of 0.08 nM.
